According to patent publication US20240218339:

Key:
[1] = test system: T1, MG29-1 (uncultivated microorganism (metagenomic)); assay: cell_activity
T1 sequence: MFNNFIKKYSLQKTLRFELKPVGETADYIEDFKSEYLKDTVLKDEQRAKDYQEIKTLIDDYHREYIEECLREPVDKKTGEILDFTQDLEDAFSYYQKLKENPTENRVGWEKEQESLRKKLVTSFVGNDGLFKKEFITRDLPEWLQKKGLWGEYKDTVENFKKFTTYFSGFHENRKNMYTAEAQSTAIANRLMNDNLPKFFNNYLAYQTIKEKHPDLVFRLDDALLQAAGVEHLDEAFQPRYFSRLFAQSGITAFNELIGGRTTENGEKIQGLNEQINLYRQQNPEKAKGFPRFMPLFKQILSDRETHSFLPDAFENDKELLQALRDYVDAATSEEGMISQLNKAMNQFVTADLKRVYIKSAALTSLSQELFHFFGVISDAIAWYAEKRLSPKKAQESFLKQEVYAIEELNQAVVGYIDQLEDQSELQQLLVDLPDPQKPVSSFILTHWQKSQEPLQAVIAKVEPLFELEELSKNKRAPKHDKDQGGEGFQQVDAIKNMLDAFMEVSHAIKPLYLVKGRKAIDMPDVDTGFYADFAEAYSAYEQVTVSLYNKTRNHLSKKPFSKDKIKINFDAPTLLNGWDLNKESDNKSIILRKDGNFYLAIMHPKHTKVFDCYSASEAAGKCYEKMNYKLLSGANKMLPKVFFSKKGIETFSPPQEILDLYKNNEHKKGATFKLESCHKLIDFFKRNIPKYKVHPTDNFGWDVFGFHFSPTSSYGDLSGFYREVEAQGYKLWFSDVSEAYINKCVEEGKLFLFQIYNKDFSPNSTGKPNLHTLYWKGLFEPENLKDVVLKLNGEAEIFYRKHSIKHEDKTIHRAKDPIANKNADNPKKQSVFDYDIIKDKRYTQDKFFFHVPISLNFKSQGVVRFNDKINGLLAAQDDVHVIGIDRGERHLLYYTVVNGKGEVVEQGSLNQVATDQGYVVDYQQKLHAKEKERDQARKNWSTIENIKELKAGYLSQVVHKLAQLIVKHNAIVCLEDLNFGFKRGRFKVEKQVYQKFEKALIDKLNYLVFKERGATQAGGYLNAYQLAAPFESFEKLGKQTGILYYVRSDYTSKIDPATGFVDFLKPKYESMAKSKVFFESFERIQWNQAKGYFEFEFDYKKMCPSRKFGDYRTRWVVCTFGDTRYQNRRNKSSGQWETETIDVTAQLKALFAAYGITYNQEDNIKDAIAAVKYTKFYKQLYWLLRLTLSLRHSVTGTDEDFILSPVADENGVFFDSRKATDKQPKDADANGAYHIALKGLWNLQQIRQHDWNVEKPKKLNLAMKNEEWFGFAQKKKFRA

[2] = test system: T2, MG31-1 (uncultivated microorganism (metagenomic)); assay: cell_activity; settings: HEK cells
T2 sequence: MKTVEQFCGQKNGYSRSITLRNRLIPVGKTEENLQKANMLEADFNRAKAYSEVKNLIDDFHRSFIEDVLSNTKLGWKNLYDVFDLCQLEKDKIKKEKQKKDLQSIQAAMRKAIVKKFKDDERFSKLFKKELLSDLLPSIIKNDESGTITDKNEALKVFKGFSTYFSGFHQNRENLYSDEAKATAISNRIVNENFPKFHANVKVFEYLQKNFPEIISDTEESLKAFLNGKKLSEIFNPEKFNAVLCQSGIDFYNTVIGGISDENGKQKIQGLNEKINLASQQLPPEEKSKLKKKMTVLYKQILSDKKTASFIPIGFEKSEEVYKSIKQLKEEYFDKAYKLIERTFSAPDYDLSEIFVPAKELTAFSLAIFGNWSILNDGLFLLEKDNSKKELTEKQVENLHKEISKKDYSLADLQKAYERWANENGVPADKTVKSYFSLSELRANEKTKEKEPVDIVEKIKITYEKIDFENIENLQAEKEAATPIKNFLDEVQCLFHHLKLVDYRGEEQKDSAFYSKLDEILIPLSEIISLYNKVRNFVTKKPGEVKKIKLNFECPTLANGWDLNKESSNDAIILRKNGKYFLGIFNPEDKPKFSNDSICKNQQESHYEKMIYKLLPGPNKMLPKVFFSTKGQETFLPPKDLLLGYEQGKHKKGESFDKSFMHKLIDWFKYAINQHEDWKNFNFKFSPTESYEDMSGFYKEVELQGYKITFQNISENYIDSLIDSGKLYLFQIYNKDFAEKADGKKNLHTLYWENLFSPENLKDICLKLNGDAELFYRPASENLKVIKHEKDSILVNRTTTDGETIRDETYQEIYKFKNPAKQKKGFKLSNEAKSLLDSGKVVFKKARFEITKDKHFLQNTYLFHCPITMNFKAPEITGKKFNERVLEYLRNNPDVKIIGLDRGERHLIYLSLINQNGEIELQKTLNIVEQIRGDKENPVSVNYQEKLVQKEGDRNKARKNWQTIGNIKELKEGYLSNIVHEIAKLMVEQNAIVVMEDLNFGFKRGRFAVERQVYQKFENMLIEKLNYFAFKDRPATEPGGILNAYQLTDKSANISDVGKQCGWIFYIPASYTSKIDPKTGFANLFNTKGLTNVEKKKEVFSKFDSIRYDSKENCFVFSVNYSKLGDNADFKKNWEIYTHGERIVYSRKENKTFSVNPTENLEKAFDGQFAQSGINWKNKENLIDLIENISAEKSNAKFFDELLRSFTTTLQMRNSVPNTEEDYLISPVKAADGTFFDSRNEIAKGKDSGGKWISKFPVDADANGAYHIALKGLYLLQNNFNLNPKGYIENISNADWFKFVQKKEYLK

AAUUUCUACUAUUGUAGAUNCCGAUCGUUACAGGAAAAUCUG / GTTCCCGATCGTTACAGGAAAATCTG / CAGATTTTCCTGTAACGATCGGGAAC [mAlb29-1-2 sgRNA ; mouse albumin intron 1 mAlb29-1-2 site]
activity ([1]; PAM GTTC, Hepa1-6 RNP nucleofection, guide backbone inferred): 0 % indel

AAUUUCUACUAUUGUAGAUNCGCACUAAGGAAAGUGCAAAGU / TTTGCGCACTAAGGAAAGTGCAAAGT / ACTTTGCACTTTCCTTAGTGCGCAAA [hAlb_g87 sgRNA ; human albumin intron 1 g87 site]
activity ([1]; PAM TTTG, RNP nucleofection HepG2, guide backbone inferred): 97 % indel

AAUUUCUACUAUUGUAGAUNCUUGGACCUUGUUUUGCUUACUGU / ACAAATTTTACTTGGACCTTGTTTTGCTTACTGT / ACAGTAAGCAAAACAAGGTCCAAGTAAAATTTGT
activity ([2]; PAM TTTA, SD 0.75): -0.32 % NHEJ

AAUUUCUACUAUUGUAGAUNGAAAGGGGGUGGGGGGAGUUUGCU / ATGGGCTTTGGAAAGGGGGTGGGGGGAGTTTGCT / AGCAAACTCCCCCCACCCCCTTTCCAAAGCCCAT [MG29-1 guide VEGFA target8 ; VEGFA target8]
activity ([1]; PAM KTTG (TTTG), HEK293T plasmid transfection, SD 10.17): 30.1 % NHEJ

AAUUUCUACUAUUGUAGAUNGCCAGAGCCGGGGUGUGCAGACGG / TCCCTCTTTAGCCAGAGCCGGGGTGTGCAGACGG / CCGTCTGCACACCCCGGCTCTGGCTAAAGAGGGA [MG31-1 guide VEGFA target9 ; VEGFA target9]
activity ([2]; PAM YTTn (TTTA), SD 1.92): 6.72 % NHEJ

AAUUUCUACUAUUGUAGAUNGGAGGUCAGAAAUAGGGGGUCCAG / TAGCTGTTTGGGAGGTCAGAAATAGGGGGTCCAG / CTGGACCCCCTATTTCTGACCTCCCAAACAGCTA [MG31-1 guide VEGFA target7 ; VEGFA target7]
activity ([2]; PAM YTTn (TTTG), SD 8.67): 17.4 % NHEJ

AAUUUCUACUAUUGUAGAUNUGAAGUCUUACAAGGUUAUCUUAU / TTTGTATTTGTGAAGTCTTACAAGGTTATCTTAT / ATAAGATAACCTTGTAAGACTTCACAAATACAAA [MG31-1 guide albumin target4 ; Albumin target4]
activity ([2]; PAM YTTn (TTTG), SD 2.72): 7.05 % NHEJ

AAUUUCUACUAUUGUAGAUNUGUGAGGGAGCACCGUUCUCUAGA / TACATAGTTGTGTGAGGGAGCACCGTTCTCTAGA / TCTAGAGAACGGTGCTCCCTCACACAACTATGTA
activity ([1]; PAM KTTG (GTTG), HEK293T plasmid transfection, SD 1.57): 30.4 % NHEJ
